In test [1] the target is T1, full length human SIRPα v1 stably expressed on CHOK1 or 293F cells (human, UniProt P78324 31-504).
T1 construct: whole, on cells; also called CHOK1-human SIRPα v1; CHOK1-hSIRPα v1
Kind of test: FACS, CHOK1-hSIRPα v1 cells. From the text: All the humanized antibodies as tested were confirmed to retain the similar activity as the parental antibody of 025c to bind to SIRP family members.

Test [2] has as its target full length human SIRPα v1 with a small beta-gal fragment (ED) fused to its C-terminal, expressed in K562 … (human, UniProt P78324 31-504). Kind of test: cell-based or functional assay.
For test [3], the target named is T2, human SIRPα v2 ECD recombinant protein (tag not given) (human).
T2 construct: extracellular domain; also called ELISA microplate coated human SIRPα v2 ECD
In words: competitive ELISA, mFc-CD47 ECD on coated SIRPα v2 ECD. The protocol:
Competitive ELISA assay was used to determine whether the purified chimeric antibodies can block CD47 and SIRPα interaction. Briefly, antibody and mFc tagged human CD47 ECD recombinant protein were co-incubated with ELISA microplate coated human SIRPα v1 ECD (FIGS. 6A and 6B) or human SIRPα v2 ECD (FIGS. 7A and 7B) recombinant protein. After washing, HRP labeled anti-mouse Fc 2nd antibody (Sigma) was added and incubated at 37° C. for 1 hour. Then, 100 μl/well of TMB solution (Biotechnology) was added. After incubation for 15 minutes at room temperature, the reaction was stopped by the addition of 50 μl of 1N HCl. OD 450 nm was read. Blocking ratio was determined by blockade of human CD47 ECD recombinant protein binding to ELISA microplate coated human SIRPα ECD recombinant protein. Other than 005, all antibodies as tested can block interaction between human CD47 and different human SIRPα variants.
The humanized antibodies were tested for the ability to block CD47 and SIRPα interaction with competitive ELISA assay (refer to methods described in Example 4.2.3.).

In test [4] the target is T2, human SIRPα v2 ECD recombinant protein …. Described as above. A digest of the protocol: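 Antibodies co-incubated with mFc-tagged human CD47 ECD on plates coated with human SIRPα v1 or v2 ECD. Bound CD47 detected with HRP anti-mouse Fc (1 h, 37° C) and TMB, read at OD 450 nm; blocking ratio derived from loss of CD47 binding.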
The source holds these as a separate data set.

Like-named read-outs stand apart in the source and are kept apart here.

Sequence of full length human SIRPα v1 with a small beta-gal fragment (ED) fused to its C-terminal, expressed in K562 … (P78324 31-504): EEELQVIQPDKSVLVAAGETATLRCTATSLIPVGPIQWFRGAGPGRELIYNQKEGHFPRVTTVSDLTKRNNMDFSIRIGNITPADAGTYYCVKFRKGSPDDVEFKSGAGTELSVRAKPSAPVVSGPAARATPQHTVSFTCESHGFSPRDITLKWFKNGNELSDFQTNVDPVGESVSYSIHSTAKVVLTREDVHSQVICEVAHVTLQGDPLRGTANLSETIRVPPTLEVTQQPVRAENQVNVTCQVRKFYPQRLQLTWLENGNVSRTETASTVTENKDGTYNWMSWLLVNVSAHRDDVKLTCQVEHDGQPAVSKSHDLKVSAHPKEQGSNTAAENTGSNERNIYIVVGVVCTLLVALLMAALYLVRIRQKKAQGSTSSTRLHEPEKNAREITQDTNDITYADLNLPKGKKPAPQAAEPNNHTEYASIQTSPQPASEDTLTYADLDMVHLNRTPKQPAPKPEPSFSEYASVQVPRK
T1 sequence (P78324 31-504): as above

B1: 025c (antibody, V domains shown)
VH: EVQLQQSGAELVKPGASVKLSCTASGFNIKDYYMHWVKQRTEQGLEWIGRIDPEDGETKYAPKFQGKATITADTSSNTAYLQLSSLTSEDTAVYYCDRGLAYWGQGTLVTVSA
VL: QIVLTQSPAIMSASPGEKVTLTCSASSSVSSSYLYWYQQKPGSSPKLWIYSTSNLASGVPARFSGSGSGTSYSLTISSMEAEDAASYFCHQWSSYPYTFGGGTKLEIK
notes: also called chimeric antibody 025c; parental antibody of 025c
For the molecule B1, in test [1], the midpoint of the response, the EC50, lay at 1.22 nM and the “TOP MFI” value came out at 64700 MFI. In test [2], the “SHP-1 recruitment blocking, IC50” value turned out to be 0.28 nM and the “SHP-1 recruitment blocking, TOP blocking (%)” value was determined as 84.5%. In test [3], the IC50 turned out to be 1.86 nM and the “TOP blocking (%)” value is 98.6%. In test [4], the IC50 was 2.21 nM and the “TOP blocking (%)” value was 96.5%.

Values taken from patent US20250270315A1 (ELPISCIENCE SUZHOU BIOPHARMA, published 2025).
